According to patent publication US20220162322A1 (CAPELLA BIOSCIENCE, published 2022):

T1: human BDCA-2 (CLEC4C) expressed on transfected U937 cells (human, UniProt Q8WTT0 1-213)
T1 construct: also called cell expressed human BDCA-2; Q8WTT0
T1 sequence: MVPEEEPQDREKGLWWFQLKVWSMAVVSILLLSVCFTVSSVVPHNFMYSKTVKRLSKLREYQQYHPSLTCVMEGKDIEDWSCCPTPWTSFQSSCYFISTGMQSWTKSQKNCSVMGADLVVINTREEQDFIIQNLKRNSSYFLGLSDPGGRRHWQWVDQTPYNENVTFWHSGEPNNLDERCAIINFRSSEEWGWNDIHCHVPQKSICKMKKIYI

T2: cynomolgus BDCA-2 expressed on transfected U937 cells (cynomolgus, UniProt Q8WTT0 1-213 (human entry))
T2 construct: also called cell expressed cynomolgus BDCA-2
T2 chain: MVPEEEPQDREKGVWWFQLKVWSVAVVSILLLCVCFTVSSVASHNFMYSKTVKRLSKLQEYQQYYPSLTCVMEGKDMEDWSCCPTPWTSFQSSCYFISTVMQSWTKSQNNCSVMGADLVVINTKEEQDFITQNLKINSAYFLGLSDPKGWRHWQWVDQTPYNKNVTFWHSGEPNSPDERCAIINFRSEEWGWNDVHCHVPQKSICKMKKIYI

T3: BDCA-2 (CLEC4C, CD303) on human plasmacytoid dendritic cells (purified pDC or pDC within PBMC) (human, UniProt Q8WTT0 1-213)
T3 sequence: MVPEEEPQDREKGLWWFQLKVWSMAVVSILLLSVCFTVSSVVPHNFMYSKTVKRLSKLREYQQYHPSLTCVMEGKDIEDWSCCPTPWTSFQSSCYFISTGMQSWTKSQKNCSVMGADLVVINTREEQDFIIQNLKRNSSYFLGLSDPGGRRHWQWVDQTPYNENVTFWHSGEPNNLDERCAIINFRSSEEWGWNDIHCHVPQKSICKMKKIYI


What was measured:
[1] = target: the molecule itself; assay: High-Mass MALDI mass spectrometry with chemical cross-linking
Procedure: For the characterization of BDCA2(CLEC4C)/3E5 (variant 12) complexes, the measurements were performed using an Autoflex II MALDI ToF ToF mass spectrometer (Bruker) equipped with a CovalX HM4 interaction module. The CovalX interaction module contains a detecting system designed to optimize detection up to 2 MDa with nano-molar sensitivity. […] In order to characterize CLEC4C we submitted the sample to trypsin, chymotrypsin, Asp-N, elastase and thermolysin proteolysis followed by nLC-LTQ-Orbitrap MS/MS analysis. For the characterization, a nLC Ultimate 3000-RSLC system in line with a LTQ-Orbitrap mass spectrometer (Thermo Scientific) was used. Sample preparation was as follows:
In order to determine the epitope of CLEC4C/3E5 complex with high resolution, the protein complexes were incubated with deuterated cross-linkers and subjected to multi-enzymatic cleavage. After enrichment of the crosslinked peptides, the samples were analyzed by high resolution mass spectrometry (nLC-LTQ-Orbitrap MS) and the data generated were analyzed using XQuest and Stavrox software.

[2] = target: T1, human BDCA-2 (CLEC4C) expressed on …; assay: flow cytometry (MFI titration) on cells expressing human BDCA-2
Procedure: (§1) Cells expressing human and cynomolgus BDCA-2 were resuspend at 2×10⁶ cells/mi in FACS buffer (2% FBS/PBS) and 50 μl of the cell suspension was added per well, in a 96-well V bottom plate. The plate was centrifuge and the supernatant discarded. 12 serial, 2-fold dilutions of mAbs, starting at 50 μg/ml (range 50-0.024 μg/ml), in FACS buffer were prepared and 25 μl of the mAb dilutions added to wells, in triplicate. The plate was then incubated for 60 min at room temperature then centrifuged and washed 3× with 150 μl FACS buffer. To each well was then added 25 μl goat-anti-human PE conjugate (or goat-anti-mouse in the case of AC144), diluted 1:200 in FACS buffer. The plates were incubated for 60 min at room temperature protected from light and centrifuged and washed 3× with 150 μl FACS buffer. 25 μl per well of 2% PFA 2% was added and incubated for 20 min at 4° C., protected from light and analysed on the iQue screener.
(§2) Serial dilutions of the 4 chimeric mAbs (50-0.25 ug/ml) were prepared and incubated with cells expressing human and cynomolgus BDCA-2. After staining, the median fluorescence intensity (MFI) of the cells was measured and the data points of the dilution series were fitted on a sigmoidal curve after normalization to determine the EC50 values.

[3] = target: T4, human BDCA-2-Fc (hIgG1-Fc-hBDCA-2) (human); assay: ELISA on plate-coated human BDCA2-Fc
T4 construct: also called huBDCA2-Fc
Procedure: 100 ul per well of 0.5 μg/ml of human BDCA2-Fc in PBS pH 7.4 was incubated overnight at 4 C. The wells were then washed 3 times with PBST (PBS+0.05% Tween 20) and then blocked with 250 ul 4% Skimmed Milk (Marvel, cat. no. 3023033 Lot no. 7169) in PBS for 120 min at RT. The wells were washed and then incubated with 100 ul per well of humanized mAbs at 3 fold dilutions (from 1 μg/ml to 0.001 μg/ml) in 1% Skimmed Milk PBS buffer at pH 7.4. After 60 min at RT the wells were washed 3 times in PBST and 100 ul of mouse anti-human IgG (anti-CH1-HRP; 1:1000, BD Pharmigen cat. no. 555788) or donkey anti-mouse IgG (anti-mouse IgG-HRP) at 1:5000 dilution (Jackson ImmunoResearch, Cat. no. 715-035-150) in 1% Skimmed Milk PBS was added. Development was with TMB (ThermoFisher, cat. no. 00-4201-56), 100 ul/well and the reaction stopped with 100 μl/well H2SO4 (cat. nr. J/8430/15, lot nr.) and the absorbance read at 450 nm. The EC50 was calculated using Graphpad Prism software. A negative (1% Skimmed Milk/PBS) and positive control (anti-BDCA-2, AC144, Miltenyi Biotec, cat. no. 130-090-690) were utilised in the assay.

[4] = target: T2, cynomolgus BDCA-2 expressed on …; assay: flow cytometry (MFI titration) on cells expressing cynomolgus BDCA-2
Procedure: as §1, §2

[5] = target: T4, human BDCA-2-Fc (hIgG1-Fc-hBDCA-2); assay: SPR (BIAcore T200), huBDCA2-Fc immobilised on CM5 chip, mAb injected
Procedure: A BIAcore T200 was used with BIAcore run buffer (HBS-EP) at pH7.4. 692RU of huBDCA2-Fc was immobilized to a CM5 chip (CFJB156) utilising 5 μg/ml of huBDCA2-Fc with the BIAcore EDC/NHS kit according to the manufacturer's instructions. Two-fold dilutions of the humanized mAbs were injected starting at 200 nM down to 3.1 nM with a contact time of 60 s at a flow of 30 or 60 ul/min at 25° C. followed by an off-rate wash for 5 minutes with BIAcore buffer. […] The BIAcore T200 software was used to calculate Ka (1/Ms), Kd (1/s) and the KD (nM).

[6] = target: T3, BDCA-2 (CLEC4C, CD303) on human …; assay: cell-based or functional assay
[7] = target: T4, human BDCA-2-Fc (hIgG1-Fc-hBDCA-2); assay: SPR (BIAcore), comparison of KD
[8] = target: T3, BDCA-2 (CLEC4C, CD303) on human …; assay: cell-based or functional assay; remark: listed apart in the source

T4 sequence (chain, as listed by the source limits assumed): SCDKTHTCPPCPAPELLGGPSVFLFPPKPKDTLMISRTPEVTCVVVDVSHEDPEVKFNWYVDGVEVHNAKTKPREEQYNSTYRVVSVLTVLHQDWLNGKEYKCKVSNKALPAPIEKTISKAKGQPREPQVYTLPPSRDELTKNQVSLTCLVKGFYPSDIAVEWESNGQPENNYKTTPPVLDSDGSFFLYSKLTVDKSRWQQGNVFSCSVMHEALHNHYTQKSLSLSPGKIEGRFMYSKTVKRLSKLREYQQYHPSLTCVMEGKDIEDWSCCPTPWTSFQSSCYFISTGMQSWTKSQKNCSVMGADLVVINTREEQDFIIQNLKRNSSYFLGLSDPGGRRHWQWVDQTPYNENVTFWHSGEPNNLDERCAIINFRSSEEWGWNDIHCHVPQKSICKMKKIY

EC50 [2] [µg/mL]	EC50 [3] [nM]	EC50 [4] [µg/mL]	Kd [5] [nM]	IC50, nM; inhibition of IFNα from ODN stimulated healthy donor PBMC [6] [nM]	IC90, nM; inhibition of IFNα from ODN stimulated healthy donor PBMC [6] [nM]	fold higher affinity than parental wild type 3E05 and AC144 [7] [fold]	IC50, ng/ml; inhibition of IFNα from ODN stimulated healthy donor PBMC [8] [ng/mL]	IC90, ng/ml; inhibition of IFNα from ODN stimulated healthy donor PBMC [8] [ng/mL]	Binder	binding result [1]
									CLEC4C (BDCA-2) protein used for cross-linking / mass spectrometry epitope mapping (receptor, also called BDCA2(CLEC4C)) NFMYSKTVKRLSKLREYQQYHPSLTCVMEGKDIEDWSCCPTPWTSFQSSCYFISTGMQSWTKSQKNCSVMGADLVVINTREEQDFIIQNLKRNSSYFLGLSDPGGRRHWQWVDQTPYNENVTFWHSGEPNNLDERCAIINFRSSEEWGWNDIHCHVPQKSICKMKKIYI	no binding
1.76	0.3	2.6	0.35						chimeric mAb 3E05 (parental mouse 3E05 VH/VL on human IgG1) (antibody, V domains shown, also called 3E5; Parental 3E05) VH: EVKLVESGGGLVKPGGSLKLSCAASGFTFSSYTMSWVRQTPEKRLEWVAYISSGGGNTYYPDSVKGRFTISRDNARNTLYLQMSSLRSEDTAMYYCARHDYYDGGLYYAMDYWGQGTSVTVSS VL: DIVLTQSPASLAVSLGQRATISCKASQSVDYDGDSSMNWYQQKPGQPPKLLICAASTLESGIPARFSGSGSGTDFTLNIHPVEEEDAATYYCQQTNEDPPTFGGGTKLEIK	
	0.33		< 0.01	0.1	0.85	> 100	14.3	127	3E05_var12 (antibody, human IgG1, V domains shown, also called 3E05 VL3VH4 (var_12); 3E05VL3VH4 (var_12)) VH: EVQLVESGGGLVKPGGSLRLSCAASGFTFSSYTMSWVRQAPGKGLEWVAYISSGGGQTYYPDSVKGRFTISRDNAKNSLYLQMNSLRAEDTAVYYCARHDYYEGGLYYAMDYWGQGTLVTVSS VL: DIVMTQSPDSLAVSLGERATINCKSSQSVDYDGDSSMNWYQQKPGQPPKLLIYAASTLESGVPSRFSGSGSGTDFTLTISSLQAEDVATYYCQQTNEDPPTFGGGTKVEIK	no binding
